Target: extracellular matrix (ECM) proteins
Assay: ECM (Matrigel) ELISA, 1 µM antibody

Substance | ECM score
high control mAb (antibody) | 24.2
low control mAb (antibody) | 1.1
